Laboratory results: the supplement of paper PMC10724198
± gives the standard deviation of the averaged measurements.

Columns and labels:
[1] = tested on: Saccharomyces cerevisiae; test: protein stability index of tFT-peptide fusion (C-terminal peptide) (PSI (0-1 scale)); higher = more stable (slower turnover)
Experimental: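 MPS profiling in S. cerevisiae of the tFT-X12 degron library: putative degron peptides plus stable controls, 12 aa, fused to the C-terminus of a sfGFP-mCherry timer. Cells are FACS-sorted into 8 mCherry/sfGFP bins and deep-sequenced. PSI runs from 0 (unstable) to 1 (stable). Backgrounds are wild type, das1Δ and doa10Δ at 30 °C, and wild type, das1Δ, cdc34-1 and cdc53-1 at 37 °C; 2-3 technical replicates each.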

[2] = tested on: Saccharomyces cerevisiae; test: as above; details: genetic background: wild type; temperature: 30 C
[3] = genetic background: cdc34-1, temperature: 37 C
[4] = genetic background: cdc53-1, temperature: 37 C
[5] = genetic background: das1 deletion, temperature: 30 C
[6] = genetic background: das1 deletion, temperature: 37 C
[7] = genetic background: doa10 deletion, temperature: 30 C
[8] = genetic background: wild type, temperature: 30 C
[9] = genetic background: wild type, temperature: 37 C
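Also: PSI is a weighted mean of sequencing reads over stability bins, variants kept only with over 10 reads, mCherry proximal and sfGFP distal, peptide attached via GGGS linker.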

Sequence	protein stability index [1, 3]	protein stability index [1, 4]	protein stability index [1, 5]	protein stability index [1, 6]	protein stability index [1, 7]	protein stability index [1, 8]	protein stability index [1, 9]	protein stability index [2]
SSVGLFVLLCLV	0.31 ± 0.028	0.333 ± 0.017	0.271 ± 0.039	0.503 ± 0.07	0.2 ± 0.0056	0.205 ± 0.015	0.323 ± 0.0056	0.302 ± 0.02
LPIFWVWFSVFR	0.232 ± 0.012	0.243 ± 0.022	0.269 ± 0.035	0.445 ± 0.027	0.334 ± 0.027	0.257 ± 0.034	0.3973 ± 0.0026	0.349 ± 0.0062
LSLWPIFGIIYC	0.46 ± 0.035	0.4637 ± 0.0007	0.357 ± 0.024	0.516 ± 0.013	0.332 ± 0.011	0.364 ± 0.019	0.513 ± 0.019	0.4508 ± 0.0019
LLVRSFIFPLVY	0.3906 ± 0.0039	0.428 ± 0.018	0.294 ± 0.053	0.482 ± 0.018	0.282 ± 0.016	0.289 ± 0.013	0.441 ± 0.012	0.367 ± 0.034
NFSALECKVQLT	0.747 ± 0.076	0.727 ± 0.018	0.625 ± 0.018	0.725 ± 0.017	0.647 ± 0.042	0.653 ± 0.026	0.689 ± 0.0082	0.75 ± 0.052
FALVSLSFALVE	0.4203 ± 0.00048	0.457 ± 0.019	0.306 ± 0.025	0.518 ± 0.0066	0.28 ± 0.0036	0.292 ± 0.036	0.472 ± 0.02	0.379 ± 0.034
ALTLSYAIKLKV	0.36 ± 0.02	0.395 ± 0.022	0.313 ± 0.032	0.4594 ± 0.00077	0.248 ± 0.0066	0.265 ± 0.025	0.401 ± 0.027	0.372 ± 0.014
EMPRLSKAIRVT	0.5407 ± 0.00036	0.5702 ± 0.0053	0.371 ± 0.026	0.603 ± 0.011	0.279 ± 0.0047	0.314 ± 0.028	0.4961 ± 0.0028	0.44 ± 0.029
PPRRCFPLLLFF	0.44 ± 0.094	0.4471 ± 0.0019	0.445 ± 0.022	0.546 ± 0.01	0.208 ± 0.0085	0.209 ± 0.014	0.331 ± 0.012	0.235 ± 0.036
VWGLGWLVVGVG	0.179 ± 0.0033	0.218 ± 0.029	0.185 ± 0.023	0.284 ± 0.012	0.165 ± 0.0044	0.179 ± 0.018	0.267 ± 0.0082	0.221 ± 0.011
GFSPLFVLVFGV	0.47 ± 0.012	0.486 ± 0.024	0.312 ± 0.027	0.518 ± 0.012	0.333 ± 0.016	0.311 ± 0.013	0.489 ± 0.011	0.4261 ± 0.0035
WPRSFSIILLSR	0.322 ± 0.036	0.3371 ± 0.002	0.265 ± 0.029	0.4355 ± 0.0031	0.361 ± 0.015	0.288 ± 0.025	0.419 ± 0.0043	0.285 ± 0.027
QCLSYFFPVPVA	0.073 ± 0.042	0.0838 ± 0.012	0.186 ± 0.03	0.227 ± 0.0065	0.147 ± 0.014	0.182 ± 0.02	0.192 ± 0.018	0.258 ± 0.035
YVLLSRVSVFSA	0.446 ± 0.0078	0.464 ± 0.031	0.378 ± 0.019	0.533 ± 0.0079	0.297 ± 0.011	0.329 ± 0.037	0.501 ± 0.028	0.421 ± 0.035
VLCFFWWWCRVC	0.4 ± 0.021	0.525 ± 0.038	0.472 ± 0.019	0.583 ± 0.044	0.353 ± 0.02	0.324 ± 0.035	0.4133 ± 0.001	0.43 ± 0.017
LFVPVFSFGFVC	0.485 ± 0.0071	0.558 ± 0.0077	0.415 ± 0.027	0.589 ± 0.009	0.121 ± 0.02	0.145 ± 0.014	0.237 ± 0.015	0.226 ± 0.011
YRLTIVWFFLAL	0.434 ± 0.028	0.519 ± 0.006	0.354 ± 0.026	0.609 ± 0.034	0.3504 ± 0.002	0.349 ± 0.012	0.513 ± 0.011	0.427 ± 0.055
VFWLLVGLGCFS	0.561 ± 0.017	0.563 ± 0.013	0.431 ± 0.025	0.572 ± 0.0075	0.41 ± 0.033	0.417 ± 0.028	0.5686 ± 0.0022	0.481 ± 0.012
KNGNVEILIKCT	0.625 ± 0.081	0.6278 ± 0.0034	0.485 ± 0.018	0.631 ± 0.0084	0.377 ± 0.022	0.425 ± 0.034	0.58 ± 0.018	0.4881 ± 0.0027
CLRVSFFFWLFA	0.465 ± 0.017	0.562 ± 0.0068	0.392 ± 0.041	0.553 ± 0.0073	0.224 ± 0.0084	0.263 ± 0.017	0.424 ± 0.0084	0.351 ± 0.016
